Measured values published in article PMC8213707, “Structural basis for the ARF GAP activity and specificity of the C9orf72 complex” (Nature Communications, 2021).

T1: SMCR8 of the STREP-STREP-FLAG-ARF1-SMCR8 fusion (UniProt Q8TEV9 1-937)
T1 construct: SMCR8; In the structure its N-terminus is joined to the C terminus of ARF1 E17-K181, which carries the N-terminal STREP-STREP-FLAG tag, on one chain; also called Smith-Magenis chromosome regions 8
T1 sequence: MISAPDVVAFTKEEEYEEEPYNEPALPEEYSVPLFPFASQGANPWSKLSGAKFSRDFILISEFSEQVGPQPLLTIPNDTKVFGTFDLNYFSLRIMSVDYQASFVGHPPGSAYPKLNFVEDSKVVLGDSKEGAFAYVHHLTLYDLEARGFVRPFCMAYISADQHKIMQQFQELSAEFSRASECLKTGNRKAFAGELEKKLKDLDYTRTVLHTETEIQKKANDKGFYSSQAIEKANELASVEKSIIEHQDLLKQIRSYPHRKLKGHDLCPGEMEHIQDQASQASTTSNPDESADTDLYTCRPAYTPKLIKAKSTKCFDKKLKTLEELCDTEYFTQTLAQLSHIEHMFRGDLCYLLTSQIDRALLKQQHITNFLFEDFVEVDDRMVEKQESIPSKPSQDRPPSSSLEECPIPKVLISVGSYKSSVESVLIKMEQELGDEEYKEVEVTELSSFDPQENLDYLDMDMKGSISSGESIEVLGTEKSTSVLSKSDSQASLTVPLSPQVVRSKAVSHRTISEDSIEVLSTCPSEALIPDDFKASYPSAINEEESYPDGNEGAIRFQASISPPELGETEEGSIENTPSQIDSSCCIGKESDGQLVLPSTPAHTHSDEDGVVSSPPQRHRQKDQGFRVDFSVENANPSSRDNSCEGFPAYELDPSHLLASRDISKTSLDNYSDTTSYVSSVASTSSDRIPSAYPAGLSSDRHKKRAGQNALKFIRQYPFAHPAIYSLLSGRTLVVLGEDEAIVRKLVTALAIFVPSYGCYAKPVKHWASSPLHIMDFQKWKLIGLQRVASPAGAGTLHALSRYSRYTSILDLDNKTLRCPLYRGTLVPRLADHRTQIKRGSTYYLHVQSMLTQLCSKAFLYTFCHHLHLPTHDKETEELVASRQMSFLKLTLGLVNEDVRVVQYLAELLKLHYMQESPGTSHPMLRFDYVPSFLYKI

B1: ARF1 (residues E17-K181) of the STREP-STREP-FLAG-ARF1-SMCR8 fusion (domain or fragment)
chain: not shown
notes: ARF1, residues E17-K181; In the structure this ARF1 is joined by its C terminus to the N-terminus of SMCR8 on one chain (STREP-STREP-FLAG-ARF1-SMCR8, inserted by KpnI sites); also called ARF1-GDP-BeF3^-
B2: WDR41 (subunit of the C9orf72:ARF1-SMCR8:WDR41 complex) (natural protein)
chain: MLRWLIGGGREPQGLAEKSPLQTIGEEQTQNPYTELLVLKAHHDIVRFLVQLDDYRFASAGDDGIVVVWNAQTGEKLLELNGHTQKITAIITFPSLESCEEKNQLILTASADRTVIVWDGDTTRQVQRISCFQSTVKCLTVLQRLDVWLSGGNDLCVWNRKLDLLCKTSHLSDTGISALVEIPKNCVVAAVGKELIIFRLVAPTEGSLEWDILEVKRLLDHQDNILSLINVNDLSFVTGSHVGELIIWDALDWTMQAYERNFWDPSPQLDTQQEIKLCQKSNDISIHHFTCDEENVFAAVGRGLYVYSLQMKRVIACQKTAHDSNVLHVARLPNRQLISCSEDGSVRIWELREKQQLAAEPVPTGFFNMWGFGRVSKQASQPVKKQQENATSCSLELIGDLIGHSSSVEMFLYFEDHGLVTCSADHLIILWKNGERESGLRSLRLFQKLEENGDLYLAV
notes: WDR41, cloned without a tag; also called WD repeat-containing protein 41
B3: ARF1^Q71L (residues E17-K181), GTP-locked mutant (domain or fragment)
chain: not shown
notes: ARF1, residues E17-K181 (N-terminal myristoylated amphipathic helix removed); source: E. coli BL21 DE3 star, purified (Ni-NTA, Superdex 75)
B4: C9orf72 (subunit of the C9orf72:ARF1-SMCR8:WDR41 complex) (natural protein)
chain: MSTLCPPPSPAVAKTEIALSGKSPLLAATFAYWDNILGPRVRHIWAPKTEQVLLSDGEITFLANHTLNGEILRNAESGAIDVKFFVLSEKGVIIVSLIFDGNWNGDRSTYGLSIILPQTELSFYLPLHRVCVDRLTHIIRKGRIWMHKERQENVQKIILEGTERMEDQGQSIIPMLTGEVIPVMELLSSMKSHSVPEEIDIADTVLNDDDIGDSCHEGFLLNAISSHLQTCGCSVVVGSSAEKVNKIVRTLCLFLTPAERKCSRLCEAESSFKYESGLFVQGLLKDSTGSFVLPFRQVMYAPYPTTHIDVDVNTVKQMPPCHEHIYNQRRYMRSELTAFWRATSEEDMAQDTIIYTDESFTPDLNIFQDVLHRDTLVKAFLDQVFQLKPGLSLRSTFLAQFLLVLHRKALTLIKYIEDDTQKGKKPFKSLRNLKIDLDLTAEGDLNIIMALAEKIKPGLHSFIFGRPFYTSVQERDVLMTF
notes: C9orf72; not shown: GST, N-terminal, cleaved

Tests used:
Details in all cases: both partners purified
[1] = biological target: T1, SMCR8 of the …; test: cryo-EM structure; chimeric C9orf72:ARF1-SMCR8:WDR41 complex, GDP-bound, incubated with BeF3^- overnight; 20 mM HEPES pH 7.4, 200 mM NaCl, 2 mM MgCl2, 0.5 mM TCEP; 3.9 Å reconstruction
[2] = biological target: B4; test: as above
[3] = biological target: T2, C9orf72:SMCR8:WDR41 complex (wild type) (UniProt Q96LT7 1-481; Q8TEV9 1-937; Q9HAD4 1-459); test: SEC; 15 μM C9orf72:SMCR8:WDR41 incubated with 15-fold ARF1^Q71L in 500 μl overnight, injected into Superose 6 Increase 10/300
T2 construct: C9orf72; SMCR8 (Smith-Magenis chromosome regions 8); WDR41 (WD repeat-containing protein 41), cloned without a tag; The methods describe the purification for the fusion complex; also called C9orf72 complex; GAP complex; not shown: GST, N-terminal, cleaved; copies: + +

| Binder | binding result [1] | binding result [2] | binding result [3] |
| --- | --- | --- | --- |
| B1 | binds | binds | – |
| B2 | binds | – | – |
| B3 | – | – | binds |
| B4 | binds | – | – |
